Source: article PMC12724136, “Design of antibody structure-guided epitope vaccines in silico to induce potent immune responses against emerging viruses” (Journal of Virology, 2025)

B1: unnamed (parent)
chain 1: MSHRLTCAYSGFSSDIHAVWVRQAAGKGLEWIAYISDSSAYIYYSQSVRGRFTISRDNSRKQVYLQMNSLTTEDSAVYYCTREGSGFAFDYWGKGTGGGGSGGGGSGGGGSVTISATGSSNIGADLSWYLQKTGETPKLLIYKASTRSSGTPPRFSGSTSGSQYTLTISGVQAEDAGDYYCLGDHGGGALTFGGGTK
chain 2: DAIGMGSIGVMLAYMVRRKC
B2: unnamed (parent)
chain 1: B1 chain 1
chain 2: NIEWGDEVDLEM
B3: unnamed (parent)
chain 1: B1 chain 1
chain 2: GYQLASEIRGTIPLSS

Variants of: B1
Test: indirect ELISA
Settings: with partner chain of the complex shown, scFv1 protein 50 µg/mL, value read at the highest peptide concentration, parent: 0.98, read off a plot
chain 2 DAIGMGAIGAMLAYMVARKC [chain 2 S7A V10A R17A] gave a response (Binding activity) of 0.46.

Same assay, conditions: with partner chain of the complex shown; peptides 50 µg/mL; scFv1 group of bars; parent: 0.98; read off a plot
In the case of chain 2 DAIGMGAIGAMLAYMVARKC [chain 2 S7A V10A R17A], the response (Binding activity) is reported as 0.55.

Same assay, conditions: with partner chain of the complex shown; scFv1 50 µg/mL
For chain 2 DAIGMGAIGAMLAYMVARKC [chain 2 S7A V10A R17A], the EC50 (lg EC50 (µg/mL)) was 3.96.

Same assay, conditions: with partner chain of the complex shown; scFv1 50 µg/mL; value read at the highest peptide concentration, log10 = 2 (µg/mL); parent: 0.95; read off a plot
Work on chain 2 DAIGMGAIGAMLAYMVARKC [chain 2 S7A V10A R17A] yielded a response (Binding activity) of 0.47.

Variants of: B2
Test: indirect ELISA
Settings: with partner chain of the complex shown, scFv1 protein 50 µg/mL, value read at the highest peptide concentration, parent: 1.3, read off a plot
chain 2 NIEAGAAVALEM [chain 2 W4A D6A E7A D9A] gave a response (Binding activity) of 0.53.

Same assay, conditions: with partner chain of the complex shown; peptides 50 µg/mL; scFv1 group of bars; parent: 1.3; read off a plot
Work on chain 2 NIEAGAAVALEM [chain 2 W4A D6A E7A D9A] yielded a response (Binding activity) of 0.52.

Same assay, conditions: with partner chain of the complex shown; scFv1 50 µg/mL
With chain 2 NIEAGAAVALEM [chain 2 W4A D6A E7A D9A] the EC50 (lg EC50 (µg/mL)) was 4.17.

Same assay, conditions: with partner chain of the complex shown; scFv1 50 µg/mL; value read at the highest peptide concentration, log10 = 2 (µg/mL); parent: 0.77; read off a plot
chain 2 NIEAGAAVALEM [chain 2 W4A D6A E7A D9A] gave a response (Binding activity) of 0.47.

Variants of: B3
Test: indirect ELISA
Settings: with partner chain of the complex shown, scFv1 protein 50 µg/mL, value read at the highest peptide concentration, parent: 1.6, read off a plot
For chain 2 GAQLASEIAGTIPASS [chain 2 Y2A R9A L14A], the response (Binding activity) was 0.63.

Same assay, conditions: with partner chain of the complex shown; peptides 50 µg/mL; scFv1 group of bars; parent: 1.6; read off a plot
Work on chain 2 GAQLASEIAGTIPASS [chain 2 Y2A R9A L14A] yielded a response (Binding activity) of 0.62.

Same assay, conditions: with partner chain of the complex shown; scFv1 50 µg/mL
Work on chain 2 GAQLASEIAGTIPASS [chain 2 Y2A R9A L14A] yielded an EC50 (lg EC50 (µg/mL)) of 3.57.

Same assay, conditions: with partner chain of the complex shown; scFv1 50 µg/mL; value read at the highest peptide concentration, log10 = 2 (µg/mL); parent: 1.9; read off a plot
chain 2 GAQLASEIAGTIPASS [chain 2 Y2A R9A L14A] showed a response (Binding activity) of 0.58.
